Assay results published in patent publication US20260176358A1 (JIANGSU HENGRUI PHARMACEUTICALS, published 2026).

T1: human CGRP (human, UniProt P06881 83-119)
T1 peptide (looked up): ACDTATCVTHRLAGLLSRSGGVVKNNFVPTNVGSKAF

T2: rat CGRP (rat, UniProt P01256 83-119)
T2 peptide (looked up): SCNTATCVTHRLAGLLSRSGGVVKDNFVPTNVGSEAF


Key:
[1] = target: T1, human CGRP; assay: ELISA, coated CGRP
Protocol: (§1) In this test example, the abilities of the chimeric antibodies and humanized antibodies of C1 #, C9 #, C21 #, and C28 #to bind to human CGRP and rat CGRP were assessed using ELISAs. Plates were coated with […] human CGRP and rat CGRP, respectively, and blocked, and the antibodies, serially diluted, were then added. The plates were incubated for 1 h and washed, and a horseradish peroxidase-labeled anti-human Fc secondary antibody was then added. After incubation, color development was performed. […] The plates were incubated for 1 h and washed, and the antibodies, serially diluted, were then added. The plates were incubated for 1 h and washed, and a horseradish peroxidase-labeled streptavidin secondary antibody was then added. After incubation, color development was performed.

[2] = target: T2, rat CGRP; assay: ELISA, coated CGRP
Protocol: as §1

[3] = target: CGRP; assay: cell-based or functional assay
[4] = target: hPDL1 (human, UniProt Q9NZQ7 19-238); assay: ELISA of Test Example 4 of WO2021139758
Sequence of hPDL1 (Q9NZQ7 19-238 limits assumed): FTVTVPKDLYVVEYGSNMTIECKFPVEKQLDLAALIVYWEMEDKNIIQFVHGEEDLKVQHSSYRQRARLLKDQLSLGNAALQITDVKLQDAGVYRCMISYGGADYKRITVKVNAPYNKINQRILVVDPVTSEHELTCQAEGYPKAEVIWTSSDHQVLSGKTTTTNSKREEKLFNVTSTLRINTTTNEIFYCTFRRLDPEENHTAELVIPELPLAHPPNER

[5] = target: hCTLA4 (human, UniProt P16410 36-161); assay: ELISA of Test Example 4 of WO2021139758
Sequence of hCTLA4 (P16410 36-161 limits assumed): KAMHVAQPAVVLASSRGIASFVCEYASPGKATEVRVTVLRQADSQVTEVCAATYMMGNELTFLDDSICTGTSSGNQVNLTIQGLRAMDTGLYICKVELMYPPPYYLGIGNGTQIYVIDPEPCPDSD

[6] = target: hIL5 (human, UniProt P05113 20-134); assay: method of Test Example 4 of WO2021139758
[7] = target: hTSLP (human, UniProt Q969D9 29-159); assay: method of Test Example 4 of WO2021139758

Row | EC50 [1] [nM] | EC50 [2] [nM] | IC50, inhibition of cAMP production in SK-N-MC cells [3] [nM] | EC50 [4] [nM] | EC50 [5] [nM] | EC50 [6] [nM] | EC50 [7] [nM] | Binder
1 | 1.33 | 4.04 | 2.55 |  |  |  |  | C28H2L1 (antibody, human IgG1, kappa, V domains shown) VH: EVQLVQSGAEVKKPGASVKVSCKASGYTFTDYYMNWVRQAPGQRLEWIGDINPNNVVTTYNQKFKGRATLTVDKSASTAYMELSSLRSEDTAVYYCASIIIVPDYFDYWGQGTTVTVSS VL: DIQMTQSPSSVSASVGDRVTITCKASQNVGSNVAWYQQKPGKSPKALIYSASYRYSGVPSRFSGSGSGTDFTLTISSLQPEDFATYYCQQYNSYPYTFGGGTKVEIKR
2 | 1.03 | 2.8 | 12.2 |  |  |  |  | C9H8L1 (antibody, human IgG1, kappa, V domains shown) VH: EVQLVQSGAEVKKPGASVKVSCKASGYTFTDYYMNWVRQAPGQRLEWIGVINPYTGRTTYNRKFKGRATLTVDKSASTAYMELSSLRSEDTAVYYCASLLIRPHYFDYWGQGTTVTVSS VL: DIQMTQSPSSLSASVGDRVTITCKASQNVGTNVAWYQQKPGKSPKALIYSASYRYSGVPSRFSGSGSGTDFTLTISSLQPEDVATYHCQQYNFYPYTFGQGTKLEIKR
3 | 3.79 | 10.1 | 1.28 |  |  |  |  | C21#-CHI (antibody, human IgG1, kappa, V domains shown, chimeric: murine variable regions fused to human constant regions; also called C21#-CH1) VH: EVQLQQSGPELVKPGASVRISCKASGYTFTDYYMNWVRQSHRKSLEWIGDINPNNGGTNYNQKFKGKATLTVDKSSSTAYMELRSLTSEDSAVYYCASIIIVPNYFDYWGQGTTLTVSS VL: DIVMTQSQKFMSTSVGDRVSVTCKASQNVDTNVAWFQQRPGQSPKALIYSASYRYSGVPDRFTGSGSGTDFTLTISNVQSEDLADYFCQQYNNYPYTFGGGTKLEIER
4 | 1.58 | 3.11 | 21 |  |  |  |  | C9#-CHI (antibody, human IgG1, kappa, V domains shown, chimeric: murine variable regions fused to human constant regions; also called C9#-CH1) VH: EVQLQQSGPVLVKPGASVKMSCKASGYTFTDYYMNWVKQSLGKSLEWIGVINPYNGRTTYNRKFKGKATLTVDKSSSTAYMELNSLTSEDSAVYYCASLLIRPHYFDYWGQGTTLTVSS VL: DIVMTQSQKFMATSVGDRVSVTCKASQNVGTNVAWYQQKPGQSPKALIYSASYRYSVVPDRFTGSGSGTDFTLTIRNVQSEDLAEYHCQQYNFYPYTFGAGTKLELKR
5 | 1.29 | 7.4 | 1.21 |  |  |  |  | C28#-CHI (antibody, human IgG1, kappa, V domains shown, chimeric: murine variable regions fused to human constant regions; also called C28#-CH1) VH: EVQLQQSGPELVKPGASVKISCEASGYTFTDYYMNWVKQSHGKSLEWIGDINPNNGVTTYNQKFKGKATLTVDKSSSTAYMELRSLTSEDSAVYYCASIIIVPDYFDYWGQGTTLTVSS VL: DIVMTHSQKFMSTSVGDRVSVTCKASQNVGSNVAWYQEKPGQSPKALIYSASYRYSGVPDRFTGSGSGTDFTLTISNVQSEDLAEYFCQQYNSYPYTFGGGTKLEIKR
6 |  |  |  | 1.6 | 6.5 |  |  | PL-19 (bispecific antibody) chain 1: not shown chain 2: DIVLTQSPASLAVSPGQRATITCRASESVSIHGTHLMHWYQQKPGQPPKLLIYAASKLESGVPARFSGSGSGTDFTLTINPVEAEDTANYYCQQSFEDPLTFGQGTKLEIKRTVASGIPPKIECLPIDISIDEGKVLTVASCFTGEPTPEVTWSTGGRKIHSQEQGRFHIENTDDSTTLTIKDVQKQDGGLYTLTLRNEFGSDSATVNIHIRSI chain 3: not shown chain 4: not shown
7 | 1.36 | 1.81 | 7.96 |  |  |  |  | C1#-CHI (antibody, human IgG1, kappa, V domains shown, chimeric: murine variable regions fused to human constant regions; also called C1#-CH1) VH: QVQLQQSGAELVRPGSSVKISCKASGYTFSTSWMNWVKQRPGQGLEWIGQIYPGDGYTNYNGKFRGKATLTADKSSSTAYMQLSSLTSEDSAVYFCAGDYEALWGQGTTLTVSS VL: DVVMTQTPLSLPVSLGDQASISCRSSQSLVHSNGNTYFHWYLQRPGQSPKLLIYEVSNRFSGVPDRFSGSGSGTDFTLKISRVEAEDLGVYFCSQSTHVPFTFGSGTKLEIKR
8 | 1.89 | 1.95 | 9.77 |  |  |  |  | C1H3L1 (antibody, human IgG1, kappa, V domains shown) VH: EVQLVQSGAEVKKPGSSVKVSCKASGYTFSTSWMNWVRQAPGQGLEWMGQIYPGDGYTNYNVKFRGRVTITADKSTSTAYMELSSLRSEDTAVYYCAGDYEALWGQGTTVTVSS VL: DIVMTQTPLSLPVTPGEPASISCRSSQSLVHSNGNTYFHWYLQKPGQSPQLLIYEVSNRFSGVPDRFSGSGSGTDFTLKISRVEAEDVGVYYCSQSTHVPFTFGQGTKLEIKR
9 |  |  |  |  |  | 17.4 | 3.23 | HJ-3 (bispecific antibody) chain 1: not shown chain 2: DIQMTQSPSSVSASVGDRVTITCRASQDIANYLSWYQQKPGKSPKLLIYGTSNLEVGVPSRFSGSRSGTDFTLTISSLQPEDFATYYCLQDKEFPRTFGGGTKVEIKGGGGSSGAPRFLTRPLAFVVSVGKDATLSSQIVGNPTPQVSWEKDKQPVTAGARFRLAQDGDLYRLKILDLQLSDSGQYVSRARNAIGEAFACLGLQVDAEA chain 3: EVQLVQSGAEVKKPGSSVKVSCKASGYTFSNYLIEWVRQAPGQGLEWIGVIDPGVGDTNYNENFKGRATLTADKSTSTAYIELSSLRSEDTAVYYCAREDNTGTAFDYWGQGTTVTVSSASTKGPSVFPLAPSSKSTSGGTAALGCLVKDYFPEPVTVSWNSGALTSGVHTFPAVLQSSGLYSLSSVVTVPSSSLGTQTYICNVNHKPSNTKVDKKVEPKSCDKTHTCPPCPAPEAAGGPSVFLFPPKPKDTLMISRTPEVTCVVVDVSHEDPEVKFNWYVDGVEVHNAKTKPREEQYNSTYRVVSVLTVLHQDWLNGKEYKCKVSNKALPAPIEKTISKAKGQPREPQVCTLPPSREEMTKNQVSLSCAVKGFYPSDIAVEWESNGQPENNYKTTPPVLDSDGSFFLVSKLTVDKSRWQQGNVFSCSVMHEALHNHYTQKSLSLSPGKDYKDDDDK chain 4: SIVMTQTPLSLSVTPGQPASISCKASQSVSSDVTWYLQKPGQSPQLLIYYVSEHYTGVPDRFSGSGYGTDFTLKISRVEAEDVGVYYCQQHHRFPLTFGQGTKLEIKRTVAAPSVFIFPPSDEQLKSGTASVVCLLNNFYPREAKVQWKVDNALQSGNSQESVTEQDSKDSTYSLSSTLTLSKADYEKHKVYACEVTHQGLSSPVTKSFNRGEC
10 |  |  |  |  |  | 37 | 2.88 | HJ-6 (bispecific antibody) chain 1: not shown chain 2: DIQMTQSPSSVSASVGDRVTITCRASQDIANYLSWYQQKPGKSPKLLIYGTSNLEVGVPSRFSGSRSGTDFTLTISSLQPEDFATYYCLQDKEFPRTFGGGTKVEIKGGGGSSGAPRFLTCPKASVVSVGKDATLSSQIVGNPFPQVSWEKDKQPVTAGVRFRLAQDGDLYRLKILDLQLSDSGQYVSRARNAHGEAFACLGLQVDAEA chain 3: EVQLVQSGAEVKKPGSSVKVSCKASGYTFSNYLIEWVRQAPGQGLEWIGVIDPGVGDTNYNENFKGRATLTADKSTSTAYIELSSLRSEDTAVYYCAREDNTGTAFDYWGQGTTVTVSSASTKGPSVFPLAPSSKSTSGGTAALGCLVKDYFPEPVTVSWNSGALTSGVHTFPAVLQSSGLYSLSSVVTVPSSSLGTQTYICNVNHKPSNTKVDKKVEPKSCDKTHTCPPCPAPEAAGGPSVFLFPPKPKDTLMISRTPEVTCVVVDVSHEDPEVKFNWYVDGVEVHNAKTKPREEQYNSTYRVVSVLTVLHQDWLNGKEYKCKVSNKALPAPIEKTISKAKGQPREPQVCTLPPSREEMTKNQVSLSCAVKGFYPSDIAVEWESNGQPENNYKTTPPVLDSDGSFFLVSKLTVDKSRWQQGNVFSCSVMHEALHNHYTQKSLSLSPGK chain 4: SIVMTQTPLSLSVTPGQPASISCKASQSVSSDVTWYLQKPGQSPQLLIYYVSEHYTGVPDRFSGSGYGTDFTLKISRVEAEDVGVYYCQQHHRFPLTFGQGTKLEIKRTVAAPSVFIFPPSDEQLKSGTASVVCLLNNFYPREAKVQWKVDNALQSGNSQESVTEQDSKDSTYSLSSTLTLSKADYEKHKVYACEVTHQGLSSPVTKSFNRGEC
11 |  |  |  |  |  | 16 | 2.64 | HJ-5 (bispecific antibody) chain 1: not shown chain 2: DIQMTQSPSSVSASVGDRVTITCRASQDIANYLSWYQQKPGKSPKLLIYGTSNLEVGVPSRFSGSRSGTDFTLTISSLQPEDFATYYCLQDKEFPRTFGGGTKVEIKGGGGSSGAPRFLTRPKASVVSVGKDATLSSQIVGNPFPQVSWEKDKQPVTAGVRFRLAQDGDLYRLKILDLQLSDSGQYVSRARNAHGEAFACLGLQVDAEA chain 3: EVQLVQSGAEVKKPGSSVKVSCKASGYTFSNYLIEWVRQAPGQGLEWIGVIDPGVGDTNYNENFKGRATLTADKSTSTAYIELSSLRSEDTAVYYCAREDNTGTAFDYWGQGTTVTVSSASTKGPSVFPLAPSSKSTSGGTAALGCLVKDYFPEPVTVSWNSGALTSGVHTFPAVLQSSGLYSLSSVVTVPSSSLGTQTYICNVNHKPSNTKVDKKVEPKSCDKTHTCPPCPAPEAAGGPSVFLFPPKPKDTLMISRTPEVTCVVVDVSHEDPEVKFNWYVDGVEVHNAKTKPREEQYNSTYRVVSVLTVLHQDWLNGKEYKCKVSNKALPAPIEKTISKAKGQPREPQVCTLPPSREEMTKNQVSLSCAVKGFYPSDIAVEWESNGQPENNYKTTPPVLDSDGSFFLVSKLTVDKSRWQQGNVFSCSVMHEALHNHYTQKSLSLSPGK chain 4: SIVMTQTPLSLSVTPGQPASISCKASQSVSSDVTWYLQKPGQSPQLLIYYVSEHYTGVPDRFSGSGYGTDFTLKISRVEAEDVGVYYCQQHHRFPLTFGQGTKLEIKRTVAAPSVFIFPPSDEQLKSGTASVVCLLNNFYPREAKVQWKVDNALQSGNSQESVTEQDSKDSTYSLSSTLTLSKADYEKHKVYACEVTHQGLSSPVTKSFNRGEC
